According to patent US12325747 (University of Texas, dated 2025):
Read-outs that look alike come from different tables or passages of the source.

Assays:
PD-L1 on CHO-PD-L1 cells [1] = biological target: T1, PD-L1 on CHO-PD-L1 cells (human, UniProt Q9NZQ7 19-290); assay: cell-based or functional assay
Human PD-L1-Fc [2] = biological target: T2, Human PD-L1-Fc (human, UniProt Q9NZQ7 19-238); assay: ForteBio Octet BLI; IgG on AHQ sensors, 100 nM antigen; avid
T2 construct: also called Fc fusion antigen; not shown: Fc part, not described
T2 sequence (Q9NZQ7 19-238 limits assumed): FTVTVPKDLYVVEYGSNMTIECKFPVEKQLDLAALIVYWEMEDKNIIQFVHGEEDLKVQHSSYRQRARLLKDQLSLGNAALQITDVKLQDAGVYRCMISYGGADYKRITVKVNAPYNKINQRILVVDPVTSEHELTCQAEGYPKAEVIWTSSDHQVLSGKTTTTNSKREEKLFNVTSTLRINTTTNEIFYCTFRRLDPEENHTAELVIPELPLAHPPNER
Description: (§1) ForteBio K_D measurements—ForteBio affinity measurements were performed on an Octet RED384 generally as previously described (see, e.g., Estep et al., Mabs 5(2), 270-278 (2013)). Briefly, ForteBio affinity measurements were performed by loading IgGs on-line onto AHQ sensors. Sensors were equilibrated off-line in assay buffer for 30 min and then monitored on-line for 60 seconds for baseline establishment. Sensors with loaded IgGs were exposed to 100 nM antigen for 3 minutes, and afterwards were transferred to assay buffer for 3 min for off-rate measurement. For monovalent affinity assessment Fabs were used instead of IgGs. For this assessment the unbiotinylated Fc fusion antigen was loaded on-line onto the AHQ sensors. Sensors were equilibrated off-line in assay buffer for 30 min and then monitored on-line for 60 seconds for baseline establishment. Sensors with loaded antigen were exposed to 100 nM Fab for 3 minutes, and afterwards they were transferred to assay buffer for 3 min for off-rate measurement. All kinetics were analyzed using the 1:1 binding model.

Cyno PD-L1-Fc = Cyno PD-L1-Fc (cyno, UniProt G7PSE7 19-238); assay: as above
Sequence of Cyno PD-L1-Fc (G7PSE7 entry or part of it limits assumed): as the sequence (Q9NZQ7 19-238 limits assumed) above, with A33T, A34S, S62N, R68Q, Q82R, F173L, T185A, T192I, H215L counted along it
Description: as §1

Mouse PD-L1-Fc = biological target: T3, Mouse PD-L1-Fc (mouse, UniProt Q9EP73 19-238, limits assumed); assay: as above
T3 construct: not shown: Fc part, not described
T3 sequence (Q9EP73 19-238 limits assumed): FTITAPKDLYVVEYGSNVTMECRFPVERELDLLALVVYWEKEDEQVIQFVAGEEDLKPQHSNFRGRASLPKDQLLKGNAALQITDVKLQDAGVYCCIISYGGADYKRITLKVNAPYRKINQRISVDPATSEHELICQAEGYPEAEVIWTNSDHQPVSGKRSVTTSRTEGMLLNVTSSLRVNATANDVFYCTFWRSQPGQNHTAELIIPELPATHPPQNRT
Description: as §1

Human PD-L1-HIS [3] = biological target: T4, Human PD-L1-HIS (human, UniProt Q9NZQ7 19-238); assay: Octet tandem competition on HIS-tagged human PD-L1; competitor Avelumab
T4 construct: also called HIS-tagged protein (human PD-L1)
T4 sequence (Q9NZQ7 19-238 limits assumed): as the sequence (Q9NZQ7 19-238 limits assumed) above
Description: (§2) Epitope binning of PD-L1 antibodies. Binding specificity of a variety of PD-L1 antibodies were compared using a binding competition assay conducted using the ForteBio Octet® platform. Target HIS-tagged protein (human PD-L1) is loaded onto pre-charged Nickel NTA Biosensors at 1 μg/mL. The first Ab1 is saturated on the target-loaded biosensor at 100 nM, and a reference (bufer only) well is included to determine maximal Ab2 binding signal. The second Ab2 is screened for binding signal also at 100 nM, and Ab1 is included to determine background self-blocking signal. Data Analysis HT 9.0 software is used to generate a matrix of raw signal response of Ab2 binding that is then transformed to be expressed as a percentage of the unblocked Ab2 binding signal. Less than 15% response is considered competitive blocking.

Human PD-L1-HIS [4] = biological target: T4, Human PD-L1-HIS; assay: Octet tandem competition on HIS-tagged human PD-L1; competitor Durvalumab
Description: as §2

Human PD-L1-HIS [5] = biological target: T4, Human PD-L1-HIS; assay: Octet tandem competition on HIS-tagged human PD-L1; competitor Atezolizumab
Description: as §2

Human PD-L1-Fc [6] = biological target: T2, Human PD-L1-Fc; assay: ForteBio Octet BLI (row ForteBio-KD); antigen and unit inferred, taken from Table 5
PD-L1 on CHO-PD-L1 cells [7] = biological target: T1, PD-L1 on CHO-PD-L1 cells; assay: upper panel, MFI against Ab (nM): flow cytometry on CHO cells with PD-L1, anti-human IgG1-PE secondary. The panel has no title; human PD-L1 follows from paragraph 175 (all three bind human PD-L1)
Description: (§3) Antibody Activity. Varying concentrations of PD-L1 antibodies, with human IgG1 backbones, were added to CHO cells expressing either human or murine PD-L1 (CHO-PD-L1 cells). Binding was detected by addition of anti-human IgG1 secondary antibody conjugated to phycoerythrin. FACS analysis was performed, detecting phycoerythrin to determine fluorescence activity at a variety of antibody concentrations. EC50 was calculated using GraphPad Prism® software.

mouse PD-L1 protein [8] = biological target: T5, mouse PD-L1 protein (mouse, UniProt Q9EP73 19-238, limits assumed); assay: lower panel, MFI against Ab (nM): flow cytometry on CHO cells with murine PD-L1, anti-human IgG1-PE secondary. The panel has no title; murine PD-L1 follows from paragraph 175 (only ADI-20227 binds murine PD-L1 well)
T5 construct: also called murine PD-L1
T5 sequence (Q9EP73 19-238 limits assumed): as the sequence (Q9EP73 19-238 limits assumed) above
Description: as §3

PD-L1 on CHO-PD-L1 cells [9] = biological target: T1, PD-L1 on CHO-PD-L1 cells; assay: cell-based or functional assay; remark: listed apart in the source
Human PD-L1-HIS [10] = biological target: T4, Human PD-L1-HIS; assay: ForteBio Octet BLI; IgG on AHQ sensors, 100 nM antigen; column head says Avid
Description: as §1

mouse PD-L1 protein [11] = biological target: T5, mouse PD-L1 protein; assay: lower panel, MFI against Ab (nM): flow cytometry on CHO cells with murine PD-L1. The panel has no title; murine PD-L1 follows from paragraph 175
Description: as §3

PD-L1 on CHO-PD-L1 cells [12] = biological target: T1, PD-L1 on CHO-PD-L1 cells; assay: cell-based or functional assay; remark: listed apart in the source
Human PD-L1-Fc [13] = biological target: T2, Human PD-L1-Fc; assay: ForteBio Octet BLI; Fc fusion antigen on AHQ sensors, 100 nM Fab; monovalent
Description: as §1

T1 sequence (Q9NZQ7 19-290 limits assumed): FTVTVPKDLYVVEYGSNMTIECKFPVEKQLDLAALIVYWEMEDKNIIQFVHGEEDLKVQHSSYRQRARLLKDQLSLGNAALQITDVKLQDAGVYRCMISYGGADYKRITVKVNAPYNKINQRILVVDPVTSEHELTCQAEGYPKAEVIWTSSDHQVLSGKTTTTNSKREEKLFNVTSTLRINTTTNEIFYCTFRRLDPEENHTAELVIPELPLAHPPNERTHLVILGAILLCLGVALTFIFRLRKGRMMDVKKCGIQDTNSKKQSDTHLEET

Binder	Kd (Human PD-L1-Fc [2])	Kd (Cyno PD-L1-Fc)	percentage of the unblocked Ab2 binding signal (Human PD-L1-HIS [3])	percentage of the unblocked Ab2 binding signal (Human PD-L1-HIS [4])	percentage of the unblocked Ab2 binding signal (Human PD-L1-HIS [5])	EC50 (PD-L1 on CHO-PD-L1 cells [7])	Kd (Human PD-L1-Fc [13])	also measured
ADI-20227 (antibody, human IgG1, V domains shown, Tested as IgG; also called PD-L1-C1-2; clone family cLC) VH: QVQLQESGPGLVKPSQTLSLTCTVSGGSIVSGGLYWSWIRQHPGKGLEWIGYIYYAGVTYYNPSLKSRVTISVDTSKNQFSLKLSSVTAADTAVYYCARGPRMGLAGMDVWGQGTTVTVSS VL: DIQMTQSPSSVSASVGDRVTITCRASQGISSWLAWYQQKPGKAPKLLIYAASSLQSGVPSRFSGSGSGTDFTLTISSLQPEDFATYYCQQANSFPITFGGGTKVEIK	0.179 nM	0.192 nM	0.37%	0.65%	-0.52%	1.12 nM		EC50 for restoration of PD-L1:PD-1 repressed Jurkat T cell activity (row label IC50) (PD-L1 on CHO-PD-L1 cells [1]): 0.295 nM; Kd (Mouse PD-L1-Fc): 0.101 nM; Kd (Human PD-L1-Fc [6]): 0.179 nM; EC50 (mouse PD-L1 protein [8]): 1.13 nM
ADI-16403 (antibody, human IgG1, V domains shown, Tested as IgG; also called PD-L1-31; clone family 35) VH: EVQLVESGGGLVQPGGSLRLSCAASGFTFSSYWMSWVRQAPGKGLEWVANIKSDGSEKYYVDSVKGRFTISRDNAKNSLYLQMNSLRAEDTAVYYCARVTYWADYMDVWGKGTTVTVSS VL: DIQMTQSPSTLSASVGDRVTITCRASQSISSWLAWYQQKPGKAPKLLIYKASSLESGVPSRFSGSGSGTEFTLTISSLQPDDFATYYCQQSGSLPPTFGGGTKVEIK	0.317 nM	0.792 nM	2.39%	1.03%	0.75%			EC50 (read off the curve) (PD-L1 on CHO-PD-L1 cells [9]): ~2 nM; binding result (Mouse PD-L1-Fc): no binding (tested: 100 nM); Kd (Human PD-L1-HIS [10]): 0.328 nM
ADI-20799 (antibody, human IgG1, V domains shown) VH: QVQLVQSGAEVKKPGASVKVSCKASGYTFTGVYMHWVRQAPGQGLEWMGGIFPIGGTANYAQKFQGRVTITADESTSTAYMELSSLRSEDTAVYYCARDRTSGALYWGQGTLVTVSS VL: not shown						1.31 nM		EC50 (read off the curve) (PD-L1 on CHO-PD-L1 cells [9]): ~0.5 nM; binding result (mouse PD-L1 protein [11]): no binding (tested: about 700 nM)
ADI-20803 (antibody, human IgG1, V domains shown, Tested as IgG; also called PDL1-1-12; PLD1-1-12) VH: QVQLVQSGAEVKKPGSSVKVSCKASGGTFRLYAISWVRQAPGQGLEWMGSIIPGFGSANYAQKFQGRVTITADESTSTAYMELSSLRSEDTAVYYCARDGGGGTSAYSFDPWGQGTLVTVSS VL: EIVLTQSPATLSLSPGERATLSCRASQSVSSYLAWYQQKPGQAPRLLIYDASNRATGIPARFSGSGSGTDFTLTISSLEPEDFAVYYCQQSINFPYTFGGGTKVEIK	0.188 nM	0.196 nM	3.14%	2.38%	1.86%	0.7 nM		EC50 (read off the curve) (PD-L1 on CHO-PD-L1 cells [12]): ~3 nM; Kd (Mouse PD-L1-Fc): 5.65 nM; Kd (Human PD-L1-HIS [10]): 0.0092 nM
ADI-20803 Fab (Fab, V domains shown, also called Fab of ADI-20803) VH: QVQLVQSGAEVKKPGSSVKVSCKASGGTFRLYAISWVRQAPGQGLEWMGSIIPGFGSANYAQKFQGRVTITADESTSTAYMELSSLRSEDTAVYYCARDGGGGTSAYSFDPWGQGTLVTVSS VL: EIVLTQSPATLSLSPGERATLSCRASQSVSSYLAWYQQKPGQAPRLLIYDASNRATGIPARFSGSGSGTDFTLTISSLEPEDFAVYYCQQSINFPYTFGGGTKVEIK							0.226 nM	
ADI-20227 Fab (Fab, V domains shown) VH: QVQLQESGPGLVKPSQTLSLTCTVSGGSIVSGGLYWSWIRQHPGKGLEWIGYIYYAGVTYYNPSLKSRVTISVDTSKNQFSLKLSSVTAADTAVYYCARGPRMGLAGMDVWGQGTTVTVSS VL: DIQMTQSPSSVSASVGDRVTITCRASQGISSWLAWYQQKPGKAPKLLIYAASSLQSGVPSRFSGSGSGTDFTLTISSLQPEDFATYYCQQANSFPITFGGGTKVEIK							0.915 nM	
ADI-16403 Fab (Fab, V domains shown, also called Fab of ADI-16403) VH: EVQLVESGGGLVQPGGSLRLSCAASGFTFSSYWMSWVRQAPGKGLEWVANIKSDGSEKYYVDSVKGRFTISRDNAKNSLYLQMNSLRAEDTAVYYCARVTYWADYMDVWGKGTTVTVSS VL: DIQMTQSPSTLSASVGDRVTITCRASQSISSWLAWYQQKPGKAPKLLIYKASSLESGVPSRFSGSGSGTEFTLTISSLQPDDFATYYCQQSGSLPPTFGGGTKVEIK							0.935 nM	
